Measured values from publication PMC11320721 (Nature structural & molecular biology, 2024).
No end group written: not given here. Me3 = trimethyl (lysine)

Key:
[1] = molecular target: T1, PZP domain of JADE1 (JADE1PZP), wild type (human, UniProt Q6IE81 201-373); assay: NMR titration
[2] = molecular target: T1, PZP domain of JADE1 (JADE1PZP), wild …; assay: other fluorescence titration
[3] = molecular target: E215K mutant of JADE1PZP (human, UniProt Q6IE81 201-373, E215K); assay: other fluorescence titration
E215K mutant of JADE1PZP, sequence (Q6IE81 201-373 E215K): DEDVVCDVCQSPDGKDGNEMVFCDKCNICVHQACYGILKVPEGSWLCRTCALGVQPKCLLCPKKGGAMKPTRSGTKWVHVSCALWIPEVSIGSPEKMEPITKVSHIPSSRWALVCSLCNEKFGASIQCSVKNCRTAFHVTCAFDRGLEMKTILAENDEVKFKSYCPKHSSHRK

T1 sequence (Q6IE81 201-373): as the sequence (Q6IE81 201-373 E215K) above, with K15E counted along it

| Kd [1] [mM] | Kd [2] [nM] | fold decrease in binding affinity against wild type JADE1PZP [3] [fold] | Binder |
| --- | --- | --- | --- |
| 3 |  |  | ARTK(Me3)QTARKSTG (peptide, UniProt P68431 2-13, looked up) [H3K4me3_(1–12) peptide] |
|  | 900 | 3 | ARTKQTARKSTG (peptide, UniProt P68431 2-13, looked up) [H3_(1–12) peptide (residues 1–12 of H3)] |
